Measurements taken from the supplement of paper PMC11136658.

Test system: peptide library, one residue held at a place counted from the Y acceptor
Experiment: relative phosphorylation of the sub-library (ratio to the mean residue at this position); higher = residue favoured
In short: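 Purified recombinant kinases were incubated for 90 min in 384-well plates with biotinylated Tyr-centred peptide library mixtures, each fixing one residue at one position from −5 to +5, plus 50 μM ATP with γ-32P-ATP. Peptides were captured on streptavidin membranes, rinsed and quantified by phosphorimaging and ImageQuant. Intensities were normalized per position by the sum of the 18 (or 16, Ser/Thr-free library) randomized residues and multiplied by that number. Values give phosphorylation relative to the mean randomized residue.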

Sequence of NTRK1, construct: aa440-end, human (P04629 440-796, looked up): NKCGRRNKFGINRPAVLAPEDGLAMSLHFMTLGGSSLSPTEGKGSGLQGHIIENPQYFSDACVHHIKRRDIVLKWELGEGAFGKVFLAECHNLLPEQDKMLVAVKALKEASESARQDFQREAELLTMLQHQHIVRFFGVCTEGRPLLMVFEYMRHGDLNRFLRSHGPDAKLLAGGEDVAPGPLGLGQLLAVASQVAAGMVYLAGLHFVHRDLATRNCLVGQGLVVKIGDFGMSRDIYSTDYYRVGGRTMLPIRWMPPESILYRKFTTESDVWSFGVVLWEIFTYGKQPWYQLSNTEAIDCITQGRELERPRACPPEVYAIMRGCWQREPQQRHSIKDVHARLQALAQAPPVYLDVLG
Sequence of NTRK2, construct: aa455-end, human (Q16620 455-822, looked up): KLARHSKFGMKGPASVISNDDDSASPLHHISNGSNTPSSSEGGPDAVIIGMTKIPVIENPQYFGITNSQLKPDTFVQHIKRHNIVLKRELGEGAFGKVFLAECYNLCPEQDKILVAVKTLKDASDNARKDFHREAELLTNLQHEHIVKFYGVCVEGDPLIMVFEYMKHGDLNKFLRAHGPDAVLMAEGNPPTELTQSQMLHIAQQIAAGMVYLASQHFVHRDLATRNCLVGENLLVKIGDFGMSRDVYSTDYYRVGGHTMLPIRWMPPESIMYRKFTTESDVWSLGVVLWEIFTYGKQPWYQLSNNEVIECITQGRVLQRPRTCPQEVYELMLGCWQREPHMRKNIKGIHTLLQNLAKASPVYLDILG
Sequence of NEK10, construct: aa266-895, human (Q6ZWH5 266-895, looked up): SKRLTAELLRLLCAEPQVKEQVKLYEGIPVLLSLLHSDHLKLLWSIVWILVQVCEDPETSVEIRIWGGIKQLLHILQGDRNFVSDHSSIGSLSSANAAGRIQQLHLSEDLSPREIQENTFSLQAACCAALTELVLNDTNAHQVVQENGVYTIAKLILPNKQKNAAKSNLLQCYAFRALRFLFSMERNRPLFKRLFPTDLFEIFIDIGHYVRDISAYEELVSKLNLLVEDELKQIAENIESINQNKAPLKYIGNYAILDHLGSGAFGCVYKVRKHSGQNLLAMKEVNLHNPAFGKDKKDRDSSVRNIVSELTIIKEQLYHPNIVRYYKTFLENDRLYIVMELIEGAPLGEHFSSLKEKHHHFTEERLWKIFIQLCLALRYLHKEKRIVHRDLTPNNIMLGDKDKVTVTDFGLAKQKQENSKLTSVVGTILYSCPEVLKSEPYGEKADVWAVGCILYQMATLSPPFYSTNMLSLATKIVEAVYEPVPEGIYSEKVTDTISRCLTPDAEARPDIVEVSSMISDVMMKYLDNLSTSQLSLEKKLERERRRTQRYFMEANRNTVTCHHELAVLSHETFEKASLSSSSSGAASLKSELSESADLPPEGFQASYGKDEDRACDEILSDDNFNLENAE

NEK10, construct: aa266-895, human (from UniProt Q6ZWH5)
relative phosphorylation
Conditions	at +1	at +2	at +3	at +4	at +5	at -1	at -2	at -3	at -4	at -5
A fixed	0.35	0.54	0.755	0.959	0.812	0.916	0.855	1.05	1.13	1.08
D fixed	0.229	0.823	0.78	0.87	0.766	0.564	0.825	0.727	0.992	0.965
E fixed	0.173	0.582	0.836	0.71	0.776	0.798	0.772	0.745	0.897	0.981
F fixed	2.39	0.883	1.07	1.05	1.09	1.19	1.25	0.991	0.956	0.969
G fixed	0.353	1.31	1.12	1.1	1.08	1.01	1.12	0.981	1.16	1.17
H fixed	3.09	1.41	1.18	1.06	1.05	1.28	1.12	1.16	1.14	1.15
I fixed	0.888	0.45	0.571	0.794	0.692	0.801	0.637	0.801	0.805	0.869
K fixed	0.373	1.05	1.13	1.21	1.41	0.876	1.13	1.21	1.27	1.2
L fixed	1.8	0.577	0.754	0.944	0.887	1.21	1.06	1.09	0.852	0.826
M fixed	0.954	0.783	1.12	1	0.918	1.13	0.989	0.982	1.01	0.867
N fixed	0.565	1.55	1.24	1.02	1.07	0.796	1.4	1.02	0.84	0.987
P fixed	0.387	1.63	1.29	1.13	1.05	0.715	1.02	0.946	1.14	1.07
Q fixed	0.461	1.65	1.28	0.915	1.06	0.916	0.998	1.07	0.974	0.931
R fixed	0.451	1.25	1.34	1.29	1.49	1.05	1.19	1.55	1.19	1.31
V fixed	0.455	0.473	0.584	0.771	0.703	0.708	0.607	0.695	0.673	0.735
W fixed	3.08	1.04	0.934	1.17	1.15	2.04	1.03	0.981	0.971	0.901
pThr fixed	0.242	0.585	0.599	0.764	0.714	0.515	0.453	0.608	0.64	0.774
pTyr fixed	0.248	0.44	0.693	0.723	0.72	1.03	0.783	0.764	0.734	0.812

NTRK1, construct: aa440-end, human (from UniProt P04629)
relative phosphorylation
Conditions	at +1	at +2	at +3	at +4	at +5	at -1	at -2	at -3	at -4	at -5
A fixed	1.34	0.684	0.751	0.76	0.909	0.676	0.944	0.792	1.02	0.882
D fixed	0.529	0.79	0.541	1.4	1.19	2.24	1.22	1.3	1.08	1.17
E fixed	0.936	1.28	0.45	1.52	1.12	1.07	1.34	1.5	1.32	1.03
F fixed	1.66	1.26	1.82	0.952	1.24	0.966	0.812	1.12	1.33	1.04
G fixed	0.711	0.438	0.891	1.25	1.07	0.578	1.05	0.955	1.05	1.08
H fixed	0.979	0.731	0.706	1.09	0.991	1.42	0.947	1.15	0.963	1.04
I fixed	1.66	1.28	2.02	0.897	0.748	1.32	0.854	0.777	0.837	0.946
K fixed	0.236	0.577	0.271	0.658	0.783	0.273	0.811	0.691	0.722	0.782
L fixed	1.2	1.2	1.92	0.734	0.983	1.17	1.01	0.794	0.939	0.93
M fixed	1.79	1.4	1.64	1.04	1.03	0.884	1.02	0.979	0.884	0.997
N fixed	0.441	0.952	0.475	0.899	1	2.12	1.25	1.39	0.93	1.23
P fixed	0.267	0.688	0.885	1.15	1.42	0.942	0.936	0.875	1.12	0.996
Q fixed	0.984	0.922	0.544	1.01	0.944	0.869	1.18	0.872	1.1	1.04
R fixed	0.273	0.983	0.419	0.803	0.883	0.349	0.871	0.854	0.79	1.02
S fixed	0.736	0.743	0.725	0.829	0.788	0.686	1.11	1.01	0.803	0.89
T fixed	0.916	0.955	0.868	0.85	0.715	0.873	0.897	0.987	0.671	0.939
V fixed	1.84	1.06	1.38	0.784	0.743	0.951	0.756	0.696	0.791	0.785
W fixed	1.5	2.06	1.71	1.37	1.43	0.614	0.99	1.25	1.66	1.2
pThr fixed	1.54	0.962	0.449	1.08	0.958	0.981	0.838	0.952	0.96	1.03
pTyr fixed	2.47	2.33	0.884	1.74	1.01	4.13	1.32	1.48	1.44	1.23

NTRK2, construct: aa455-end, human (from UniProt Q16620)
relative phosphorylation
Conditions	at +1	at +2	at +3	at +4	at +5	at -1	at -2	at -3	at -4	at -5
A fixed	1.42	0.697	0.136	0.894	0.979	0.684	0.962	0.876	0.971	0.87
D fixed	0.407	0.696	0.42	0.788	1.01	2.06	1.2	1.25	1.11	1.21
E fixed	0.546	0.786	0.308	0.894	0.831	0.84	1.28	1.36	1.33	1.1
F fixed	1.81	1.35	1.88	1.09	1.16	1.12	0.959	1.15	1.32	1.06
G fixed	0.747	0.491	0.569	1.18	1.05	0.45	1.02	0.864	0.996	0.954
H fixed	1.23	0.808	0.871	1.11	1.01	1.36	1.13	1.19	1.05	1.09
I fixed	1.58	1.27	2.41	0.847	0.742	1.31	0.745	0.661	0.825	0.894
K fixed	0.257	0.893	0.387	0.97	0.979	0.259	0.841	0.732	0.752	1.05
L fixed	1.05	1.1	2.12	0.898	0.989	1.38	1.03	0.878	0.921	0.923
M fixed	1.61	1.17	1.63	1.02	0.922	0.958	0.809	0.982	0.82	0.979
N fixed	0.37	0.919	0.467	0.774	0.928	2.13	1.22	1.26	0.921	1.13
P fixed	0.261	0.723	0.785	1.06	1.23	0.772	0.886	0.789	1.1	0.884
Q fixed	0.811	0.927	0.546	0.993	0.912	0.907	1.08	0.964	1.12	1.09
R fixed	0.266	1.16	0.65	0.997	1.03	0.258	0.877	0.785	0.84	1.06
S fixed	0.824	0.914	0.728	0.965	1.06	0.713	1.15	1.11	0.774	0.872
T fixed	0.776	0.897	0.702	0.838	0.914	0.805	0.888	0.93	0.635	0.776
V fixed	2.18	1.24	1.69	0.911	0.83	1.17	0.802	0.769	0.81	0.806
W fixed	1.85	1.95	1.72	1.76	1.42	0.822	1.11	1.46	1.71	1.25
pThr fixed	1.17	0.567	0.302	0.689	0.807	0.824	0.828	0.83	0.932	0.913
pTyr fixed	1.77	1.3	0.567	1.03	0.776	3.47	1.13	1.22	1.26	0.986
